According to paper PMC2701634:
Values joined by “and” are separate entries in the source; they are usually repeats but may differ in a detail not shown here. Identical values can stand only once.

How the values were obtained:
Test in all cases: native gel or EMSA; purified p66 on NativePage Novex Bis-Tris gel, then Western blotting with mouse monoclonal anti-RT antibody; in the presence or absence of β-mercaptoethanol
[1] = biological target: HIV-1 reverse transcriptase p66 subunit, mutant I274A (HIV-1 (pNL4-3-ΔE-EGFP))
[2] = biological target: HIV-1 reverse transcriptase p66 subunit, wild type (HIV-1 (pNL4-3-ΔE-EGFP))
[3] = biological target: HIV-1 reverse transcriptase p66 subunit, mutant Y271A (HIV-1 (pNL4-3-ΔE-EGFP))

HIV-1 reverse transcriptase p66 subunit, mutant I274A (enzyme)
stoichiometry N [1]: 4 and 8

HIV-1 reverse transcriptase p66 subunit, wild type (enzyme)
stoichiometry N [2]: 2

HIV-1 reverse transcriptase p66 subunit, mutant Y271A (enzyme)
stoichiometry N [3]: 2 and 4
